These are literature values, as cited in patent US20200129630A1, “METHODS FOR TREATING CANCER” (BicycleRD Limited, priority 2018, published 2020).

Test in data set [1]: not given
This is another data set of the same source.

For data set [2] the following is noted: animals, 58 to 228 mg/m^2 (0.85 and […]^2 DM1) weekly.

Read-outs that look alike come from different tables or passages of the source.

B1: Lorvotuzumab mertansine: anti-CD56 ADC with DM1, SPP cleavable linker (conjugate, chains of the INN, looked up)
VH: QVQLVESGGGVVQPGRSLRLSCAASGFTFSSFGMHWVRQAPGKGLEWVAYISSGSFTIYYADSVKGRFTISRDNSKNTLYLQMNSLRAEDTAVYYCARMRKGYAMDYWGQGTLVTVSS
VL: DVVMTQSPLSLPVTLGQPASISCRSSQIIIHSDGNTYLEWFQQRPGQSPRRLIYKVSNRFSGVPDRFSGSGSGTDFTLKISRVEAEDVGVYYCFQGSHVPHTFGQGTKVEIK
modifications: mertansine (DM1) via SPP linker
As for B1, where the note is “3 consecutive days every 3 weeks”, the “Recommended Phase 2 dose (RP2D)” value is listed as “Recommended Phase 2 dose (RP2D) was 60 mg/m^2”. The “neurosensory AEs (all grades)” value (all patients) was 17%. Moreover, where the note is “in vivo”, the “Grade 3 or 4 TEAEs hyponatremia and dyspnea (each)” value was “(each 8.2%)[38]. Lorvotuzumab mertansine is currently”; the t½ result was “approximately 40 hours”.

B2: Cantuzumab mertansine: Anti-CanAg ADC with DM1, SPP cleavable linker (conjugate, chains of the INN, looked up)
VH: QVQLVQSGAEVKKPGETVKISCKASDYTFTYYGMNWVKQAPGQGLKWMGWIDTTTGEPTYAQKFQGRIAFSLETSASTAYLQIKSLKSEDTATYFCARRGPYNWYFDVWGQGTTVTVSS
VL: DIVMTQSPLSVPVTPGEPVSISCRSSKSLLHSNGNTYLYWFLQRPGQSPQLLIYRMSNLVSGVPDRFSGSGSGTAFTLRISRVEAEDVGVYYCLQHLEYPFTFGPGTKLELK
modifications: mertansine (DM1) via SPP linker
As to B2, in data set [1] (IV three-times a week), the “DLT (Grade 3)” value is “transaminitis. Hepatic, hematological, and neurosensory”; the MTD result was “three-times a week [37], The MTD was 45 mg/m^2”. For the same molecule, the RP2D result in data set [1] (every 3 weeks) is on record as “from this trial was 235 mg/m^2 every 3 weeks (~3.9 mg/m^2”. For the same molecule, the t1/2 in data set [1] (in vivo) is 40 h. For the same molecule, the MTD in data set [1] (weekly administration) is recorded as 115 mg/m^2/week (~1.9 mg/m^2/week DM1) with DLTs. Also, the axonal degeneration entry in data set [2] was “mild axonal degeneration”.
